For the experiment, the target named is RNA polymerase (RNAP), core enzyme without sigma factor (E. coli (endogenous in the cell-free extract)).

Take “sigma factor 28 (from UniProt P0AEM6 1-239) (natural protein)”: the Kσ28: dissociation constant obtained by fitting a nonlinear ODE model to GFP/mRNA time-series responses of the pTar-tetO combinatorial promoter in E. coli TX-TL cell-free extract (29°C) is 5.3 pM.

As for “sigma factor 70 (from UniProt P00579 1-613) (natural protein)”, the Kσ70: dissociation constant obtained by fitting a nonlinear ODE model to GFP/mRNA time-series responses of the pTar-tetO combinatorial promoter in E. coli TX-TL cell-free extract (29°C) came out at 0.0018 pM.

For the origin of these results see PMC7445770.
